Measurements as given in PMC11538452.

Target: A9 anti-CD40 antibody, deimmunized variant
Assay: SPR; wildtype against deimmunized variant on the CD40 protein (Supplementary Fig. 3B); format of this experiment not told in what was shown

Chain of human CD40-Fc (P25942 21-193): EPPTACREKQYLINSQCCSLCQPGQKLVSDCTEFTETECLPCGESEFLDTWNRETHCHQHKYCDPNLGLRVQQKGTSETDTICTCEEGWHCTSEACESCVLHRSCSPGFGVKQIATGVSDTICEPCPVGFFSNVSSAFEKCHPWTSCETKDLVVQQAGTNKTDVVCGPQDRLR

Kd: 1.6 nM
Substance: human CD40-Fc (from UniProt P25942 21-193) (Fc fusion)
